Experimental data published in patent publication US10808009B2, “Peptide conjugates” (BIONIZ, LLC, priority 2011, dated 2020).
No end group written: not given here. MAL‑PEG24 = bi-functional PEG24 molecule (Mal-PEG24)

Key:
Assay type in all cases: cell-based
[1] = biological target: IL-15 (Homo sapiens, UniProt P40933); assay: CTLL2 proliferation assay (WST-1), IL-15, dual peptide; settings: CTLL2 cells, IL-15 2.5 ng/ml and 5 ng/ml, increasing BNZ132-PEG-130 (0.1-10 uM)
[2] = tested on: IL-6; assay: T1165 proliferation assay (WST-1), IL-6, dual peptide; settings: T1165 cells, IL-6 0.1 ng/ml, increasing BNZ132-PEG-130
[3] = biological target: IL-2 (Homo sapiens, UniProt P60568); assay: CTLL2 proliferation assay (WST-1), IL-2, dual peptide; settings: CTLL2 cells, IL-2 5 u/ml and 10 u/ml, increasing BNZ132-PEG-130 (0.1-10 uM)
Chain of IL-2 (P60568 21-153): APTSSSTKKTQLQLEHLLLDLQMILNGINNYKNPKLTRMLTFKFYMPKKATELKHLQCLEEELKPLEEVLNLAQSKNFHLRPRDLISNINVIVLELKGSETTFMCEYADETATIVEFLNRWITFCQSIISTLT

Chain of IL-15 (P40933 49-162): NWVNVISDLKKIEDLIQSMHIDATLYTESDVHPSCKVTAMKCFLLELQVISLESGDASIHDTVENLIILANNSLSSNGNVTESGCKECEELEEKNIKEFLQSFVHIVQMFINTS

IKEFLQSFIHIVQSIINT (SEQ ID NO: 130)—MAL-PEG24—SLTHLIERSSRAVLQSLLRASRQ (SEQ ID NO: 131) (linker (positions not given here) via MAL‑PEG24; also: MAL-PEG24 attachment sites not given here) [BNZ132-PEG-130, BNZ132-1 conjugated to BNZ130 via a PEG24 linker; dual peptide antagonist]
inhibited in a dose response manner: inhibition of IL-15-induced proliferation [1] | inhibition of IL-6-induced proliferation [2] | inhibition of IL-2-induced proliferation [3]
